The target of assay [1] is T1, monkey EphA4 extracellular domain-SEAP-His protein (monkey).
T1 construct: the fusion as a whole has none; not shown: SEAP-His part
Briefly: ELISA.

Assay [2] deals with T2, human EphA4 extracellular domain-SEAP-His protein (human). The assay can be described thus: ELISA. Background: ELISA stands for enzyme-linked immunosorbent assay.
Assay [3] deals with T3, human EphA4 extracellular domain-MBP-His protein (human).
T3 construct: also called human EphA4 extracellular domain (ECD); Human EphA4 extracellular domain-MBP-His 10
The assay can be described thus: SPR Biacore T200, EphA4 ECD-MBP-His captured by anti-His antibody, antibody as analyte, 1:1 model, mean of three. Here is the method: (§1) The binding affinity of KPEP11_04, KPEP11_08, KPEP11_10, and KPEP11_18 against human EphA4 was determined by the surface plasmon resonance method (SPR method) employing Biacore T200 (Cytiva). First, an anti-His antibody (Cytiva, 28-9950-56) was diluted to 10 μg/mL with the immobilizing buffer (10 mM sodium acetate, pH 4.5), and immobilized onto a sensor chip CM5 according to the protocol attached to Biacore T200. Immobilization was performed by the amine coupling method employing N-hydroxysuccinimide (NHS) and N-ethyl-N′-(3-dimethylaminopropyl) carbodiimide hydrochloride salt (EDC), and ethanolamine was employed for blocking (sensor chips or immobilizing reagents were all from Cytiva). Human EphA4 extracellular domain-MBP-His 10 was diluted with a running buffer HBS-EP+ (Cytiva), and pumped onto a flow cell for 120 seconds to allow capturing (captured amount of about 3 RU). […] At the end of each observation, 10 mM glycine hydrochloric acid pH 1.5 (60 seconds) and 3 M MgCl₂ (30 seconds) were added to regenerate the sensor chips. Fitting analysis by the 1:1 binding model employing the BIA evaluation software attached to the system was performed against the binding reaction curves obtained to calculate the binding affinity against human EphA4 (KD=kd/ka). The experiment described above was carried out three times, and the mean was calculated for each parameter.

The target in assay [4] is T3, human EphA4 extracellular …. The assay can be described thus: SPR Biacore T200, EphA4 ECD-MBP-His captured by anti-His antibody, antibody as analyte, 1:1 model. As to the method: as §1
On the technique in general: Surface plasmon resonance follows binding to a sensor surface in real time, without labels.

Assay [5] concerns the target FN1. The assay can be described thus: ELISA. As to the method:
(§2) For the anti-human EphA4 monoclonal antibodies produced in Example 1, evaluation of binding activity to various EphA4 was performed according to the following steps. Mouse anti-6-His antibodies (R&D) were coated on the wells of a 96-well plate (Thermo […]). After incubating at room temperature for 1 hour, the wells were blocked at room temperature for 1 hour with 1% Block Ace (KAC). After washing three times with 0.02% Tween 20/PBS, the wells were seeded with human EphA4 extracellular domain-MBP-His protein, human EphA4 ligand binding domain-MBP-His protein, human EphA4 fibronectin III-type domain 1-MBP-His protein, human EphA4 fibronectin III-type domain 2-MBP-His protein, or MBP-His protein (final concentration 1 nM), and this was incubated at room temperature for 1 hour. After washing three times, anti-human EphA4 rabbit monoclonal antibody (10 pg/mL) was added, and this was incubated at room temperature for 1 hour. After washing three times, horseradish peroxidase labeled goat anti-rabbit IgG polyclonal antibody (abcam) was added, and this was incubated at room temperature for 1 hour. After washing three times, TMBZ (3,3′,5,5′-tetramethylbenzidine, KPL) solution was added to the wells, and this was incubated for four and a half minutes at room temperature. Equal amounts of quenching solution (2 N H₂SO₄, FUJIFILM Wako) were added to the wells, and absorbance at 450 nm and 650 nm were read with a microplate reader (Thermo […]).

In assay [6] the target is human EphA4 ligand binding domain-MBP-His protein (human, UniProt P54764 20-209; P0AEX9 29-392 = MBP). The assay can be described thus: ELISA. Here is the method: as §2
For assay [7], the target named is MBP. The assay can be described thus: ELISA. As to the method: as §2
The target of assay [8] is T3, human EphA4 extracellular …. Briefly: ELISA. Here is the method:
as §2

Assay [9] concerns the target FN2. Briefly: ELISA. Here is the method: as §2
In assay [10] the target is T3, human EphA4 extracellular …. The assay can be described thus: SPR Biacore T200, EphA4 ECD-MBP-His captured by anti-His antibody, antibody as analyte, 1:1 model, mean of three (exponent printed as -90, read as -09); mean of three experiments. Here is the method: as §1
Assay [11] addresses T1, monkey EphA4 extracellular …. Briefly: ELISA. As to the method:
(§3) For the anti-human EphA4 monoclonal antibodies produced in Example 1, evaluation of binding activity to various EphA4 was performed according to the following steps. Mouse anti-6-His antibodies (R&D) were coated on the wells of a 96-well plate (Thermo […]). After incubating at room temperature for 1 hour, the wells were blocked at 4° C. overnight with 1% Block Ace (KAC). After washing three times with 0.02% Tween 20/PBS, the wells were seeded with mouse EphA4 extracellular domain-SEAP-His protein, rat EphA4 extracellular domain-SEAP-His protein, rabbit EphA4 extracellular domain-SEAP-His protein, monkey EphA4 extracellular domain-SEAP-His protein, human EphA4 extracellular domain-SEAP-His protein, or SEAP-His protein (final concentration 1 nM), and this was incubated at room temperature for 1 hour. After washing three times, anti-human EphA4 rabbit monoclonal antibody (10 pg/mL) was added, and this was incubated at room temperature for about 1 hour. After washing three times, horseradish peroxidase labeled goat anti-rabbit IgG polyclonal antibody (abcam) was added, and this was incubated at room temperature for 1 hour. After washing three times, TMBZ (3,3′,5,5′-tetramethylbenzidine, KPL) solution was added to the wells, and this was incubated for 3 minutes at room temperature. Equal amounts of quenching solution (2 N H₂SO₄, FUJIFILM Wako) were added to the wells, and absorbance at 450 nm and 650 nm were read with a microplate reader (Thermo […]).
The source holds these as a separate data set.

Assay [12] deals with T4, Rat.
T4 construct: also called rat EphA4 extracellular domain-SEAP-His protein
The assay can be described thus: ELISA. As to the method: as §3

Assay [13] concerns the target T5, Mouse.
T5 construct: also called mouse EphA4 extracellular domain-SEAP-His protein
The assay can be described thus: ELISA. Here is the method:
as §3

For assay [14], the target named is T2, human EphA4 extracellular …. Briefly: ELISA. As to the method: as §3
This is another data set of the same source.

Assay [15] deals with T6, SEAP.
T6 construct: negative control antigen; also called SEAP-His protein
The assay can be described thus: ELISA. Here is the method: as §3

For assay [16], the target named is T7, Rabbit.
T7 construct: also called rabbit EphA4 extracellular domain-SEAP-His protein
The assay can be described thus: ELISA. As to the method: as §3

Several values for one entry are separate records, joined by “and”; a condition that tells them apart may be missing. Equal values may be shown once.

T2 sequence (chain, as listed by the source limits assumed): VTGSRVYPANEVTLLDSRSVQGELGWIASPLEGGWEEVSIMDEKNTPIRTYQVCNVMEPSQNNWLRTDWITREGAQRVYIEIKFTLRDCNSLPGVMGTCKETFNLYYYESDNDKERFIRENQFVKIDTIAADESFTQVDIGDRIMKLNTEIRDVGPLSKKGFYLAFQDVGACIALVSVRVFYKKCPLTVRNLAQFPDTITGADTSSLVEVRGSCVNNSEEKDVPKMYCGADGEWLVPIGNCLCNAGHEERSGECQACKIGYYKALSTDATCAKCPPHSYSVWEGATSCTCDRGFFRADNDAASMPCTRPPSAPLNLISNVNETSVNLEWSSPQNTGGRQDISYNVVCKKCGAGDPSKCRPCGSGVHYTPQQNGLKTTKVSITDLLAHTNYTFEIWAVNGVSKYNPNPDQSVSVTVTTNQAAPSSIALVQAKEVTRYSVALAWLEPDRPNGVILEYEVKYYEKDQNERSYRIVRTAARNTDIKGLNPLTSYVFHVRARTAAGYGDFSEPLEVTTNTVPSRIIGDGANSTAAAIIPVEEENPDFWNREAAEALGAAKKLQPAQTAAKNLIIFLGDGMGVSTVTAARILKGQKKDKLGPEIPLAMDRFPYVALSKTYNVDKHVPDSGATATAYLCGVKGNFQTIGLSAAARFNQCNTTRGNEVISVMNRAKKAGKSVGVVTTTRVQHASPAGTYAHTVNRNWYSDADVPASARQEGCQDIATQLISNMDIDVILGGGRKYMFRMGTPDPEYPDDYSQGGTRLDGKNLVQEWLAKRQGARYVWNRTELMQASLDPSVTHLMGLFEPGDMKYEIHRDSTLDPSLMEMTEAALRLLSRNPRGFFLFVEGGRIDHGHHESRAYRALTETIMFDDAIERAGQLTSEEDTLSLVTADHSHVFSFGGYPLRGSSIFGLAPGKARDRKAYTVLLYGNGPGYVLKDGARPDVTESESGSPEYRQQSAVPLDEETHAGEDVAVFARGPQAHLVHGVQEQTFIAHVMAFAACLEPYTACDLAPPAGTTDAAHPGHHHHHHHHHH
T1 sequence (chain, as listed by the source): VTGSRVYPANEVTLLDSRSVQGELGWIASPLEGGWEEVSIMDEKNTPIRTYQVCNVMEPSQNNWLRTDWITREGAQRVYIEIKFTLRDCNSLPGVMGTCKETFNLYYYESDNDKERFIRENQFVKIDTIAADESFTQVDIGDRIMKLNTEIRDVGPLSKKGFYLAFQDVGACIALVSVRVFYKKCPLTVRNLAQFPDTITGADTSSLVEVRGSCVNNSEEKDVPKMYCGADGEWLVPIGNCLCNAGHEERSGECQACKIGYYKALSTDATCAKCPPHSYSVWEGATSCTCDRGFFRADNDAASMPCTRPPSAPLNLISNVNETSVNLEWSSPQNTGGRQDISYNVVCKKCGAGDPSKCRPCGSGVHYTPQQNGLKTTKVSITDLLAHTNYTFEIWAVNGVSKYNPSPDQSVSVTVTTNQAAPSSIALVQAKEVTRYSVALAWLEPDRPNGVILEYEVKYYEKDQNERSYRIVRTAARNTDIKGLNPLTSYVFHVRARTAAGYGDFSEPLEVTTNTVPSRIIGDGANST

B1: KPEP11_04 (antibody, V domains shown)
VH: QEQLKESGGRLVTPGGSLTLTCTVSGIDLSSYAMSWVRQAPEKGLEWIGFINMYGTYYASWAKGRFTISRTSTTVDLKVTSLTTEDTATYFCVRGGRSPDYDIVSGDIWGPGTLVTVSS
VL: YVMMTQTPSSVSEPVGGTVTIKCQASQNIYNSLAWYQQKPGQRPKLLIADASELASGVPQRFSGSGSGTQFTLTISDLECADAATYYCQSSSAGDSYVGGFGGGTEVVVKG
notes: Rabbit IgG/kappa; Used HRP-labeled as detection antibody in the sandwich ELISAs; also called anti-human EphA4 rabbit monoclonal antibody KPEP11_04; HRP-labeled KPEP11_04
As a reminder, the EC50 (read off the curve) is the midpoint of the concentration-response curve. One may read the koff as the rate constant with which the complex falls apart. What is called kon is a measure of how fast the partners come together. A word on the Kd: it is the constant that tells how readily two partners part at equilibrium. With B1, the “EC50 (read off the curve)” value in assay [1] and in assay [2] was roughly 0.01 nM in each case. In addition, the koff in assay [3] was 0.00389 s⁻¹; in assay [4], 0.004 s⁻¹ and 0.00378 s⁻¹ and 0.00389 s⁻¹. For the same molecule, the kon in [3] was 2.06e+06 M⁻¹ s⁻¹; in assay [4], 2.33e+06 M⁻¹ s⁻¹ and 1.78e+06 M⁻¹ s⁻¹ and 2.08e+06 M⁻¹ s⁻¹. For the same molecule, the Kd in assay [4] was 1.72 nM and 2.12 nM and 1.87 nM; in [10] it was 1.9 nM. Also, the absorbance in assay [5] came out at 0.225; in [6], 1.33; in assay [7], 0.267; in assay [8], 1.41; in [9], 0.227; in assay [11], 1.21. The absorbance in assay [12] was found to be 0.044; in assay [13], 0.044; in assay [14], 1.26; in [15], 0.05; in [16], 0.039.

B2: KPEP11_08 (antibody)
heavy: QSLEESGGRLVTPGTPLTLTCTVSGFSLSSYHMSWVRQAPGKGLEWIGIIYRSGNTYYANWAKGRFTISKTSTTVDLKITSPTTEDTATYFCARESSTFYGMDLWGPGTLVTVSSGAPKAPSVFPLAPCCGDTPSSTVTLGCLVKGYLPEPVTVTWNSGTLTNGVRTFPSVRQSSGLYSLSSVVSVTSSSQPVTCNVAHPATNTKVDKTVAPSTCSKPTCPPPELLGGPSVFIFPPKPKDTLMISRTPEVTCVVVDVSQDDPEVQFTWYINNEQVRTARPPLREQQFNSTIRVVSTLPITHQDWLRGKEFKCKVHNKALPAPIEKTISKARGQPLEPKVYTMGPPREELSSRSVSLTCMINGFYPSDISVEWEKNGKAEDNYKTTPAVLDSDGSYFLYNKLSVPTSEWQRGDVFTCSVMHEALHNHYTQKSISRSPGK
light: DPVLTQTASSVSAAVGGTVTINCQASQSVYGNNELAWYQQKPGQPPKLLIYTASSLASGVPSRFKGSGSGTEFTLTISDLECADAATYYCLGYKSDDYTFGGGTEVVVKGAPVAPTVLIFPPAADQVATGTVTIVCVANKYFPDVTVTWEVDGTTQTTGIENSKTPQNSADCTYNLSSTLTLTSTQYNSHKEYTCKVTQGTTSVVQSFNRGDC
notes: Rabbit IgG/kappa; Used HRP-labeled as detection antibody in the sandwich ELISAs; also called anti-human EphA4 rabbit monoclonal antibody KPEP11_08; HRP-labeled KPEP11_08
As to B2, the “EC50 (read off the curve)” value in assay [1] and in assay [2] was roughly 0.02 nM in each case. Also, the Kd in [3] was 1.51 nM; in assay [4] it was 1.51 nM and 1.67 nM and 1.36 nM. Moreover, the koff in assay [3] was found to be 0.00217 s⁻¹; in assay [4], 0.00214 s⁻¹. The kon is 1.44e+06 M⁻¹ s⁻¹ in assay [3]; 1.42e+06 M⁻¹ s⁻¹ and 1.24e+06 M⁻¹ s⁻¹ and 1.58e+06 M⁻¹ s⁻¹ in assay [4]. For the same molecule, the absorbance in [5] was found to be 0.283; in assay [6], 0.292; in [7] it was 0.3; in assay [8], 1.31; in assay [9], 0.265; in assay [12] it was 0.065. For the same molecule, the absorbance in [13] was found to be 0.071; in assay [14], 1.15; in assay [15], 0.072; in [16], 0.057.

(Values after US20240385190A1 (EISAI R AND D MANAGEMENT, published 2024).)
